According to PMC9482650, “Quantitative fragmentomics allow affinity mapping of interactomes” (Nature Communications, 2022):

T1: DFNB31_2, Q9P202
T1 sequence (Q9P202 274-371, limits assumed, looked up): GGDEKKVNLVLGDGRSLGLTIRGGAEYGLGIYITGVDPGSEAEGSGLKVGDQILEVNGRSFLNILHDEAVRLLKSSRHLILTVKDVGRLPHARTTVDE

T2: GRIP1_2, Q9Y3R0
T2 sequence (Q9Y3R0 145-248, limits assumed, looked up): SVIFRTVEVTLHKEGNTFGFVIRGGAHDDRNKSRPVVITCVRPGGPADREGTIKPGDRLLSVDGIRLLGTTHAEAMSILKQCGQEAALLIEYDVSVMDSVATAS

T3: GRIP1_7, Q9Y3R0
T3 sequence (Q9Y3R0 999-1096, limits assumed, looked up): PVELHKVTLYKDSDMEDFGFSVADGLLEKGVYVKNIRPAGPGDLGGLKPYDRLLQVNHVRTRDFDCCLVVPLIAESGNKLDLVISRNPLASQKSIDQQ

T4: LRRC7, Q96NW7
T4 sequence (Q96NW7 1440-1537, limits assumed, looked up): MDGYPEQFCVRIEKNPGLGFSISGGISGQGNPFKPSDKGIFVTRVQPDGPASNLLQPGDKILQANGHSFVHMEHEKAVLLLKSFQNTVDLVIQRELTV

T5: MPDZ_10, O75970
T5 sequence (O75970 1624-1722, limits assumed, looked up): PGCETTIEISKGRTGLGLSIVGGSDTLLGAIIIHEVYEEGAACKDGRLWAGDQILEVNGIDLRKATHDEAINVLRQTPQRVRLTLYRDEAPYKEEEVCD

T6: MPDZ_5, O75970
T6 sequence (O75970 695-796, limits assumed, looked up): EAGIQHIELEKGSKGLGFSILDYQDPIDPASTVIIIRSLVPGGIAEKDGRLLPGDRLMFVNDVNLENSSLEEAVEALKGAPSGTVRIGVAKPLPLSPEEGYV

T7: MPP6, Q9NZW5
T7 sequence (Q9NZW5 125-219, limits assumed, looked up): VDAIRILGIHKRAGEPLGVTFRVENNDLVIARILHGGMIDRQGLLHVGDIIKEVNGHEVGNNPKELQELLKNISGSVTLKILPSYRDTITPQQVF

T8: MPP7, Q5T2T1
T8 sequence (Q5T2T1 134-230, limits assumed, looked up): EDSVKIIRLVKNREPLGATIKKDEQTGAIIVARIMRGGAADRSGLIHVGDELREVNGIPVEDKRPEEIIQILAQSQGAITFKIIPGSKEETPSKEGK

T9: RADIL, Q96JH8
T9 sequence (Q96JH8 971-1071, limits assumed, looked up): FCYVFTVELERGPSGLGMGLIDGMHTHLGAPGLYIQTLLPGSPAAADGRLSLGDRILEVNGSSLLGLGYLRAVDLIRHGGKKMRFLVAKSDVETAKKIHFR

T10: RAPGEF6, Q8TEU7
T10 sequence (Q8TEU7 525-625, limits assumed, looked up): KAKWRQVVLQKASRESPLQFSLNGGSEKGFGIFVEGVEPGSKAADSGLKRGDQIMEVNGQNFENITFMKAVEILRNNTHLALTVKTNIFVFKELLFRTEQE


Experiments:
Assay in all cases: holdup assay
Parameters in all cases: key: below the threshold = too weak to quantify, mostly under pKd 3.1 to 4
Details in all cases: plain residues with an end cap or a label only (N-terminal biotin on a linker: ado-ado)
CASK, O14936 = target: CASK, O14936
Chain of CASK, O14936 (O14936 487-570): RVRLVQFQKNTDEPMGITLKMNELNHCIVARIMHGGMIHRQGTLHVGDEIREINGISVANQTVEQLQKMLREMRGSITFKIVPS

DFNB31_2, Q9P202 = target: T1, DFNB31_2, Q9P202
DLG4_3, P78352 = target: DLG4_3, P78352
Chain of DLG4_3, P78352 (P78352 306-403): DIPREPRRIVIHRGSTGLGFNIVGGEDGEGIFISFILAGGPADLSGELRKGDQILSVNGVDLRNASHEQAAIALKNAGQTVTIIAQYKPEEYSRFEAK

FRMPD2_3, Q68DX3 = target: FRMPD2_3, Q68DX3
Chain of FRMPD2_3, Q68DX3 (Q68DX3 1073-1166): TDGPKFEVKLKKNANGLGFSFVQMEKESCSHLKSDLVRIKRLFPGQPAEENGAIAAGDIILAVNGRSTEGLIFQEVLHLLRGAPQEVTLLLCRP

FRMPD4, Q14CM0 = target: FRMPD4, Q14CM0
Chain of FRMPD4, Q14CM0 (Q14CM0 67-160): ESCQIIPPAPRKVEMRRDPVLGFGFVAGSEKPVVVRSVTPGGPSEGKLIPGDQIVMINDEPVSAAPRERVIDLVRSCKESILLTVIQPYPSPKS

GIPC2, Q8TF65 = target: GIPC2, Q8TF65
Chain of GIPC2, Q8TF65 (Q8TF65 112-203): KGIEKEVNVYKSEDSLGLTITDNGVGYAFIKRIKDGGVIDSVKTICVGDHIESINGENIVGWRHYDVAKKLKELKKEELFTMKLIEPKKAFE

GRIP1_2, Q9Y3R0 = target: T2, GRIP1_2, Q9Y3R0
GRIP1_7, Q9Y3R0 = target: T3, GRIP1_7, Q9Y3R0
GRIP2_6, Q9C0E4 = target: GRIP2_6, Q9C0E4
Chain of GRIP2_6, Q9C0E4 (Q9C0E4 648-740): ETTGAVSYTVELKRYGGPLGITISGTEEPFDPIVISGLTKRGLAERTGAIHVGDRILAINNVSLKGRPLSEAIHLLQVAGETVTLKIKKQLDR

HTRA2, O43464 = target: HTRA2, O43464
Chain of HTRA2, O43464 (O43464 355-458): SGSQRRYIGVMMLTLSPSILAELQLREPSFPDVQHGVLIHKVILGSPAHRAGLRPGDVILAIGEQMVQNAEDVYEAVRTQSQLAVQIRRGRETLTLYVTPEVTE

IL16_1, Q14005 = target: IL16_1, Q14005
Chain of IL16_1, Q14005 (Q14005 210-306): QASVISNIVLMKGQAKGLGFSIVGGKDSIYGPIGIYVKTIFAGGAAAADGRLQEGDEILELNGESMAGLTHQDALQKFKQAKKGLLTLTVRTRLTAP

Inadl_2, Q8NI35 = target: Inadl_2, Q8NI35
Chain of Inadl_2, Q8NI35 (Q8NI35 238-335): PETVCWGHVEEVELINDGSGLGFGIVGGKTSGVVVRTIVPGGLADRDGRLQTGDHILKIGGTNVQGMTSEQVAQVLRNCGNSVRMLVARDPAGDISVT

Inadl_4, Q8NI35 = target: Inadl_4, Q8NI35
Chain of Inadl_4, Q8NI35 (Q8NI35 547-651): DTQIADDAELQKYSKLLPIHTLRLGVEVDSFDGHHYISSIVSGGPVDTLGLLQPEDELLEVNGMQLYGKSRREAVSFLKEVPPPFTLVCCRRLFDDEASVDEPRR

LDB3, O75112 = target: LDB3, O75112
Chain of LDB3, O75112 (O75112 1-94): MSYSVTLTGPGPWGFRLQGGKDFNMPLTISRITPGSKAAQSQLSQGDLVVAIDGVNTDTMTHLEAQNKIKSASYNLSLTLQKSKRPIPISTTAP

LRRC7, Q96NW7 = target: T4, LRRC7, Q96NW7
MAGI2_3, Q86UL8 = target: MAGI2_3, Q86UL8
Chain of MAGI2_3, Q86UL8 (Q86UL8 600-682): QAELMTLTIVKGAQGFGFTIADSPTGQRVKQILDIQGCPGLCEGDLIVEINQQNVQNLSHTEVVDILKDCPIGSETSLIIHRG

MAGI2_5, Q86UL8 = target: MAGI2_5, Q86UL8
Chain of MAGI2_5, Q86UL8 (Q86UL8 915-1017): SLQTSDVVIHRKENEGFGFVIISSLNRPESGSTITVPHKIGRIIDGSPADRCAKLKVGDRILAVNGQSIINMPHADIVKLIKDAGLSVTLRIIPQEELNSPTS

MAGI3_2, Q5TCQ9 = target: MAGI3_2, Q5TCQ9
Chain of MAGI3_2, Q5TCQ9 (Q5TCQ9 398-503): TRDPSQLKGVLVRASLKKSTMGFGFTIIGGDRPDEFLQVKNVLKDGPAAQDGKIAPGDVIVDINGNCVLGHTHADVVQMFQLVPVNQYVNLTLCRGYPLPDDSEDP

MAST1, Q9Y2H9 = target: MAST1, Q9Y2H9
Chain of MAST1, Q9Y2H9 (Q9Y2H9 962-1065): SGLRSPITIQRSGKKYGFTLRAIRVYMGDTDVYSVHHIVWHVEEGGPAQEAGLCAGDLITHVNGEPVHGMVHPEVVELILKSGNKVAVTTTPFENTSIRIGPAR

MPDZ_10, O75970 = target: T5, MPDZ_10, O75970
MPDZ_5, O75970 = target: T6, MPDZ_5, O75970
MPP6, Q9NZW5 = target: T7, MPP6, Q9NZW5
MPP7, Q5T2T1 = target: T8, MPP7, Q5T2T1
NHERF4_1, Q86UT5-2 = target: NHERF4_1, Q86UT5-2
Chain of NHERF4_1, Q86UT5-2 (Q86UT5 other isoform, or with tags, fused parts or gaps): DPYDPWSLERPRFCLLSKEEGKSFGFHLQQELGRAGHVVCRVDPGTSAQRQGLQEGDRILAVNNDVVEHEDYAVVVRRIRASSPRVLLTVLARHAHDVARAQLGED

PDZRN4_1, Q6ZMN7 = target: PDZRN4_1, Q6ZMN7
Chain of PDZRN4_1, Q6ZMN7 (Q6ZMN7 213-318): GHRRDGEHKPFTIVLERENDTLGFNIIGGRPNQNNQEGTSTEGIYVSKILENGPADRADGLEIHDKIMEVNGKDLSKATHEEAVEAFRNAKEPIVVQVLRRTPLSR

PTPN3, P26045 = target: PTPN3, P26045
Chain of PTPN3, P26045 (P26045 505-587): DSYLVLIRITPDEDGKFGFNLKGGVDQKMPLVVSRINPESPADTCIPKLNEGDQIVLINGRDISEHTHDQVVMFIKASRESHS

RADIL, Q96JH8 = target: T9, RADIL, Q96JH8
RAPGEF6, Q8TEU7 = target: T10, RAPGEF6, Q8TEU7

Binder | pKd (CASK, O14936) | pKd (DFNB31_2, Q9P202) | pKd (DLG4_3, P78352) | pKd (FRMPD2_3, Q68DX3) | pKd (FRMPD4, Q14CM0) | pKd (GIPC2, Q8TF65) | pKd (GRIP1_2, Q9Y3R0) | pKd (GRIP1_7, Q9Y3R0) | pKd (GRIP2_6, Q9C0E4) | pKd (HTRA2, O43464) | pKd (IL16_1, Q14005) | pKd (Inadl_2, Q8NI35) | pKd (Inadl_4, Q8NI35) | pKd (LDB3, O75112) | pKd (LRRC7, Q96NW7) | pKd (MAGI2_3, Q86UL8) | pKd (MAGI2_5, Q86UL8) | pKd (MAGI3_2, Q5TCQ9) | pKd (MAST1, Q9Y2H9) | pKd (MPDZ_10, O75970) | other results
VISSDDLTEL [CAPN6, Q9Y6Q1] | below the threshold | below the threshold | below the threshold | below the threshold | 4.73 | below the threshold | below the threshold | below the threshold | below the threshold | below the threshold | below the threshold | below the threshold | below the threshold | 3.53 | below the threshold | 3.68 | 3.53 | below the threshold | 4.99 | below the threshold | pKd (MPDZ_5, O75970): below the threshold; pKd (MPP6, Q9NZW5): below the threshold; pKd (MPP7, Q5T2T1): below the threshold; pKd (NHERF4_1, Q86UT5-2): 3.94; pKd (PDZRN4_1, Q6ZMN7): below the threshold; pKd (PTPN3, P26045): 4.12; pKd (RADIL, Q96JH8): below the threshold; pKd (RAPGEF6, Q8TEU7): below the threshold
TFSRRPKTRV [CD226, Q15762] | below the threshold | below the threshold | 3.84 | below the threshold | below the threshold | below the threshold | 3.57 | below the threshold | below the threshold | below the threshold | 3.57 | below the threshold | below the threshold | below the threshold | below the threshold | below the threshold | below the threshold | 5.24 | 4.24 | 4.03 | pKd (MPDZ_5, O75970): below the threshold; pKd (MPP6, Q9NZW5): below the threshold; pKd (MPP7, Q5T2T1): below the threshold; pKd (NHERF4_1, Q86UT5-2): below the threshold; pKd (PDZRN4_1, Q6ZMN7): below the threshold; pKd (PTPN3, P26045): below the threshold; pKd (RADIL, Q96JH8): 3.57; pKd (RAPGEF6, Q8TEU7): below the threshold

The next lines start with results.

pKd (CASK, O14936) | pKd (DFNB31_2, Q9P202) | pKd (DLG4_3, P78352) | pKd (FRMPD2_3, Q68DX3) | pKd (FRMPD4, Q14CM0) | pKd (GIPC2, Q8TF65) | pKd (GRIP1_2, Q9Y3R0) | pKd (GRIP1_7, Q9Y3R0) | pKd (GRIP2_6, Q9C0E4) | pKd (HTRA2, O43464) | pKd (IL16_1, Q14005) | pKd (Inadl_2, Q8NI35) | pKd (Inadl_4, Q8NI35) | pKd (LDB3, O75112) | pKd (LRRC7, Q96NW7) | pKd (MAGI2_3, Q86UL8) | pKd (MAGI2_5, Q86UL8) | pKd (MAGI3_2, Q5TCQ9) | pKd (MAST1, Q9Y2H9) | pKd (MPDZ_10, O75970) | Binder | other results
below the threshold | below the threshold | 4.38 | 3.53 | below the threshold | 3.56 | below the threshold | below the threshold | 3.86 | below the threshold | 3.48 | below the threshold | 3.57 | below the threshold | below the threshold | 3.82 | 3.75 | 5.32 | 4.48 | 3.92 | THHRKIHTRV [ZNF599, Q96NL3] | pKd (MPDZ_5, O75970): 3.55; pKd (MPP6, Q9NZW5): below the threshold; pKd (MPP7, Q5T2T1): below the threshold; pKd (NHERF4_1, Q86UT5-2): 3.72; pKd (PDZRN4_1, Q6ZMN7): below the threshold; pKd (PTPN3, P26045): below the threshold; pKd (RADIL, Q96JH8): 3.62; pKd (RAPGEF6, Q8TEU7): below the threshold
below the threshold | below the threshold | below the threshold | below the threshold | 4.05 | below the threshold | below the threshold | below the threshold | below the threshold | below the threshold | 3.94 | below the threshold | below the threshold | below the threshold | below the threshold | 3.51 | 3.59 | below the threshold | 4.85 | below the threshold | AKADAQESRL [PLCB2, Q00722] | pKd (MPDZ_5, O75970): below the threshold; pKd (MPP6, Q9NZW5): below the threshold; pKd (MPP7, Q5T2T1): below the threshold; pKd (NHERF4_1, Q86UT5-2): 3.84; pKd (PDZRN4_1, Q6ZMN7): 4.5; pKd (PTPN3, P26045): 4.74; pKd (RADIL, Q96JH8): below the threshold; pKd (RAPGEF6, Q8TEU7): below the threshold
